Experimental data as given in the nanobody polyreactivity screen of Harvey et al. (2022).

Experiment: yeast display, Sf9 membrane polyspecificity reagent, FACS + sequencing; frameworks hold sequencing errors
Method in brief: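 Synthetic nanobody libraries on Saccharomyces cerevisiae BJ5465 were galactose-induced for 36–48 hours, stained 1 hour at 4 °C with 10% biotinylated, detergent-solubilized Sf9 membrane reagent and enriched on streptavidin microbeads. FACS then separated cells into low and high (top ~1%) gates by anti-HA (expression) and streptavidin (reagent binding) fluorescence. Genes were colony-PCR amplified, MiSeq 2 × 250 sequenced and CDR-length filtered. A clone's polyreactivity label is that of its gate of origin.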

Sequence	polyreactivity (PSR sort gate)
QVQLVESGGGLVQAGGSLRLSCAASGSIFWYAMGWYRQAPGKERELVATITSGASTTYADSVKGRFTISRDNPKNTVYLQMNSLKPEDTAVYYCAKGFTYPQTRFGYWGQGTQVTVSS	low polyreactivity
QVQLVESGGGLVQAGGSLRLSCAASGSIFWYNAMGWYRQAAGKERELVAAIRWRGGSTYYADSVKGRFTISRDNEKNTVYLQMNSLKPEDTAVYYFAAQVYVSQLYTSYYYWGQGTQVTVSS	high polyreactivity
QVQLVESGGGLVQAGGSLRLSCAASGSIFWYNAMGWYRQAPGKERELVASISYSGAITYYADSVKGRFTISRDNAKNTVYLQMNSLKPEDTAVYYCNAEHYLPGYDWSEYDSWGQGTQVTVSS	low polyreactivity
QVQLVESGGGLVQAGGSLRLSCAASGSIFWYYAMGWSRQAPGKERELVAAITGSGGSTYYADSVKGRFTISRDNAKTTVYLQLNSLKPEDTAVYYCAAEAFFWYYGWYDYWGQGTQVTVSS	high polyreactivity
QVQLVESGGGLVQAGGSLRLSCAASGSIFYANAMGWYRQAPWKEREFVAAISSSGGGTSYADSVKGRFTISRDNAKNTVYLQMNSLKPEDTAVYYFAARVTYGGIPARQIYDYWGQGTQVTVSS	low polyreactivity
QVQLVESGGGLVQAGGSLRLSCAASGSIFYAYARGWYRQAPGKERELVATISSVGSTYYADSVKGRFTISRDNAKHTVYLHMNSLKPEDTAVHYCAKQRIVVYKTGYDYWGQGTQVTVSS	low polyreactivity
QVQLVESGGGLVQAGGSLRLSCAASGSIFYDNAMGWYRQAPGKERELVAAIRGRGGSTYYADSVKGRFTISRDNAKNTVYLQMNSLKPEDTAVYYCNALNYRYRKYDYWGQGTQVTVSS	high polyreactivity
QVQLVESGGGLVQAGGSLRLSCAASGSIFYDNAMGWYRQAPGKERELVAAISFRGSSTYYADSVKGRFTISRDNAKNTVYLQMNSLKPEDTAVYYCNTDIYVQYGWGQGTQVTVSS	low polyreactivity
QVQLVESGGGLVQAGGSLRLSCAASGSIFYDNGMGWYRQAPGKERELVAAISRGGTTNYSDSVKGRFTISRDKAKNTVYLQMNSLKPEDTAVYYCNAETRFTYWGSWYDYWGQGTQVTVSS	low polyreactivity
QVQLVESGGGLVQAGGSLRLSCAASGSIFYDYAMGWYRQAPGKERELVAAISGRGGSTYYADSVKGRFTISRDNAKNTVYLQMNSLKPEDTAVYYCAARYRYRFLDRYNYWGQGTQVTVSS	high polyreactivity
QVQLVESGGGLVQAGGSLRLSCAASGSIFYDYAMGWYRQAPGKERELVATISSGGSTNYADSVKGRFTISRDNAKNTVYLQMNSLKPEDTAVYYCNVDGRRYPHEFDYWGQGTQVTVSS	low polyreactivity
QVQLVESGGGLVQAGGSLRLSCAASGSIFYENAMGWYRQAPGKEREFVATIDLIGDRTYYADSVKGRFTISRDNAKNTVYLQMNCLKPEDTAVYYCAAERVGVFFRYDYWGQGTQVTVSS	low polyreactivity
QVQLVESGGGLVQAGGSLRLSCAASGSIFYENAMGWYRQAPGKERELVAAISRSGGSTYYADSVKGRFTISRDNAKNTVSLQMNSLKPEDTAVYYCAADVYVFIGDYWGQGTQVTVSS	low polyreactivity
QVQLVESGGGLVQAGGSLRLSCAASGSIFYFNAMGWYRQAPGKERELVADISGSGGSTYYADSVKGRFTISRDNAKNTVYLQMNSLKPEDTAVYYCAARLYLHSWWYYAYDYWGQGTQVTVSS	high polyreactivity
QVQLVESGGGLVQAGGSLRLSCAASGSIFYFNAMGWYRQATGKERELVADISWSGGDSTYYADSVKGRFTISRDNAKNTVYLQMNSLKPEDTAVYYCAADLSYPDWSRYQWDMDYWGQGTQVTVSS	low polyreactivity
QVQLVESGGGLVQAGGSLRLSCAASGSIFYFNPMGWYRPAPGKERELVAAISWSGRTYYADSVKGRFTISRDNAKKTVYLQMNSLKPEDTAVYYCNAAYHYYGKYDYWGQGTQVTVSS	high polyreactivity
QVQLVESGGGLVQAGGSLRLSCAASGSIFYGNAMGWYRPAPGKERELVAGITSGVGTNYADSVKGRFTISRDNAKNTVYLQMNSLKPEDTAVYYCNARYVYWIKGHDYWGQGTQVTVSS	high polyreactivity
QVQLVESGGGLVQAGGSLRLSCAASGSIFYGNAMGWYRPAPGKERELVARISWSGSNTRYADSVKGRFTISRDNAKNTVYLQMNSLKPEDTAVYYCNARGFPGKFGYWGQGTQVTVSS	high polyreactivity
QVQLVESGGGLVQAGGSLRLSCAASGSIFYGNAMGWYRQAPGKERELVASITYSGGTTNYADSVKGRFTISRDNAKNTVYLQMNCLKPEDTAVYYCNADIYPDRYGSTNYDFNYWGQGTQVTVSS	low polyreactivity
QVQLVESGGGLVQAGGSLRLSCAASGSIFYGNTMGWYRQAPGKDRELVASITRPGDRTYYADSVKGRFTISRDNAKNTVYLQMNSLKPEDTAVYSCNAGLVLPPPGASIVYFDQMDYWGQGTQLTVSS	low polyreactivity
QVQLVESGGGLVQAGGSLRLSCAASGSIFYGNTMGWYRQAPGKERELVAAITWSGDSTYYADSVKGRFTISRDIAKNTVYLQMISLKPEDTALYYCNADQTGVYYAGEGNHWGQGTQVSVSS	low polyreactivity
QVQLVESGGGLVQAGGSLRLSCAASGSIFYGYAMGWYRQAPGKERELVAAIRWSDGSTYYADSVKGRFTISRDNAKNTVYLQMNSLKPEDTAVYYCNADLWVPSYLWGDYWGQGTQVTVSS	low polyreactivity

Sequence	polyreactivity (PSR sort gate)
QVQLVESGGGLVQAGGSLRLSCAASGSIFYGYAMGWYRQAPGKERELVASISKRGGSTYYADSVKGRFTISRDNAKNTVYLQMNSLKPEDTAVYYCAAEGVVYREYNYWGQGTQVTVSS	high polyreactivity
QVQLVESGGGLVQAGGSLRLSCAASGSIFYHNAMGWYRQAPGKERELVAAISRSGGITSYADSVKGRFTISRDNAKNTVYLQMNSLKPEDTAVYYCAARSYYDGFYYWGQGTQVTVSS	high polyreactivity
QVQLVESGGGLVQAGGSLRLSCAASGSIFYHNPMGWYRQAPGKERELVAAITSRGGRTTYADSVKGRFTISRDNAKNTVYLQMNSLKPEDTAVYYCNAVYTGYSYISRVDYWGQGTQVTVSS	low polyreactivity
QVQLVESGGGLVQAGGSLRLSCAASGSIFYHYAMGWYRQAPGKVRELFAAISGSGGSTYYADSVKGRFTISRDNAKNTVYLQMNSLKPEDSAVYYCAADTSRYHYTRYFFDSDYWGQGTQVTVSS	low polyreactivity
QVQLVESGGGLVQAGGSLRLSCAASGSIFYINAMGWYRQAPGKEREFVATITWSGDSTYYADSVKGRFTISRDNAKNTVYLQMNSLKPEDTAVYYCTARKQYQSYVDWEYDYWGQGTQVTVSS	low polyreactivity
QVQLVESGGGLVQAGGSLRLSCAASGSIFYINAMGWYRQAPGKERELVAAITSGGTYYADSVKGRFTISRDTAKNTVYLQMNSLKPEDTAVYYCAADREGTPLFDYWGQGTQVTVSS	low polyreactivity
QVQLVESGGGLVQAGGSLRLSCAASGSIFYINAMGWYRQAPGKERELVAAITWRGAGTYYADSVKGRFTISRDNAKNTVYLQMNSLKPEDTAVYYCAADDSPWRVPRNYWGQGTQVTVSS	low polyreactivity
QVQLVESGGGLVQAGGSLRLSCAASGSIFYIYAMGWYRQAHGKERELVAAISSGGATYADSVKGRFTISRDNAKNTVYLQMNSLKPEDTAVYYFAVDRAFRAQNYHEYDYWGQGTQVTVSS	low polyreactivity
QVQLVESGGGLVQAGGSLRLSCAASGSIFYIYAMGWYRQAPGKETELVASISRSGGSTYYADSVKGRFTISRDNAKNTVYLQMNSLKPEDTAVYYCAAVITFYRYPPGETYYYWGQGTQVTVSS	high polyreactivity
QVQLVESGGGLVQAGGSLRLSCAASGSIFYKNAMGWYRQAPGKERELVAAITYSGGSTYYADSVKGRFTISRDNAKNTVYLQMNSLKPEDTAVYYCAADIGVYGERREEEYDYWGQGTQVTVSS	low polyreactivity
QVQLVESGGGLVQAGGSLRLSCAASGSIFYKYMGWNIQAPGKERELVAAISWSGGRTYYADSVKGRFTISRDNAKNTVYLQMNSLKPEDTAVYYCNRVVLWRIGDKAFEYWGQGTQVTVSS	high polyreactivity
QVQLVESGGGLVQAGGSLRLSCAASGSIFYKYVMGWYRQAPGKERELVAAISRGGGSTYYADSVKGRFTISRDNAKNTVYLQMNSLKPEDTAVYYCNAVGRPRYGHGFDHWGQGTQVTVSS	high polyreactivity
QVQLVESGGGLVQAGGSLRLSCAASGSIFYLYAMGWYRQAPGKERELVASIRWSGGNTYYADSVKGRFTISRDNAKNTVYLQMNSLKPEDTAVYYCAARTSTHGSSYSIRRFGYWGQGTQVTVSS	high polyreactivity
QVQLVESGGGLVQAGGSLRLSCAASGSIFYNTMGWYRQAPGKERELVAAISGTRASTYYADSVKGRFTISRDNAKNTVYLQMNSLKPEDTAVYYCAAVPAYPRDYDYWGQGTQVTVSS	low polyreactivity
QVQLVESGGGLVQAGGSLRLSCAASGSIFYNYAMGWYRQAPGKERELVATITRSDGSTYYADSVKGRFTISRENAKNTVYLQMNSLKPEDTAVYYCAADSGSTSEYEYWGQGTQGTVSS	low polyreactivity
QVQLVESGGGLVQAGGSLRLSCAASGSIFYPNAMGWYRQAPGKEREFVAAITWNGDSTYYADSVKGRFTISRDNAKNTVYLQMNSLKPEDTAVYYCNTDGQGIYSYNKDLSWISGYDYWGQGTQVTVSS	low polyreactivity
QVQLVESGGGLVQAGGSLRLSCAASGSIFYPNAMGWYRQAPGKERELVAAITTGGSTNYADSVKGRFTISRDNAKNTVYLQMNSLKPEDTAVYYCNARHRYHSYTQPRWKYVYWGQGTQVTVSS	low polyreactivity
QVQLVESGGGLVQAGGSLRLSCAASGSIFYPNAMGWYRQAPGKERELVADINTSGGDTYYADSVKGRFTISRDNAKNTVYLQMNSLKPEDTAVYYGAAEGYLYQYTSKPSDYWGQGTQVTVSS	low polyreactivity
QVQLVESGGGLVQAGGSLRLSCAASGSIFYPYAMGWYRPAPGKERELVAGITGGGRTYYADSVKGRFTISRDNAKNTVYLQMNSLKPEDTAVFYCAAVDFVSYYIPFHYEYYWGQGTQVTVSS	low polyreactivity
QVQLVESGGGLVQAGGSLRLSCAASGSIFYPYAMGWYRQAPGKEREFVAAITRSGGSTSYADSVKGRFTISRDNAKNTVYLHMNSLKPEDTAVYYCAAGYWYPDYDGFDYWGQGTQVTVSS	low polyreactivity
QVQLVESGGGLVQAGGSLRLSCAASGSIFYPYAMGWYRQAPGKERELVAAIRRSGTTYYADSVKGRFTISRDNAKNTVYLQMNSLKPEDTAVYYCNKVRGQEPSNYDYWGQGTQVTVSS	low polyreactivity
